Data on 1 molecule can be found in PMC7617879 (2022).

The test has as its target MMP-14 catalytic domain (Homo sapiens, UniProt P50281). In words: enzyme inhibition assay.

B1: N-TIMP2D-Cys-PEG N-terminal domain (protein)
chain: CSCSPVHPQQAFCNADVVIRAKAVSEKEVDSGNDIYGNPIKRIQYEIKQIKMFKGPEKDIEFIYTAPSSAVCGVSLDVGGKKEYLIAGKAEGDGKMHITLCDFIVPWDTLSTTQKKSLNHRYQMGC
modifications: PEGylated
On to B1, for which the Ki (usually a dissociation constant, usually derived from enzyme kinetics or from competition with a known ligand) is 0.18 nM.
